According to the RNAGym collection of RNA variant scans (doi:10.1073/pnas.2313332121):

B1: TPR t1 (parent)
chain: GACCAAUCUGCCCUCAGAGCUCGAGAACAUCUUCGGAUGCAGAGGAGGCAGGCUUCGGUGGCGCGAUAGCGCCAACGUCCUCAACCUCCAAUGCAUCCCACCACAUGAUGAUGCCUGAAGAGCCUUGGUUUUUUG

Variants of: B1
Experiment: polymerase ribozyme fitness, log enrichment relative to wild type (log ratio); higher = more active; in vitro selection for triplet polymerase activity
In short: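 Fitness compares each genotype's enrichment to that of the wild type on a logarithmic scale, averaging replicates with inverse-variance weights. The logarithm is base 2. Enrichment came from Illumina sequencing of input and output libraries after one triplicate round of in vitro selection, which included frozen incubation at −7 °C, of PCR-built, transcribed mutant libraries of each subunit of a heterodimeric triplet polymerase ribozyme. Only genotypes with ≥10 input reads and ≥1 read per output were kept.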

First: G63U G120A
Second: G63C U78C A105C
The “polymerase ribozyme fitness (log ratio)” value of the first is higher: -0.542 for the first, -3.52 for the second.

Compared with C64A A121C, C62G G120U is higher in “polymerase ribozyme fitness (log ratio)” value: -4.57 for the first, -1.64 for the second.

Compared with C64U U78G, C64U C82U U109A G120U is lower in “polymerase ribozyme fitness (log ratio)” value: -0.112 for the first, -6.78 for the second.

Going from G65A C88U to G63C G93U, the “polymerase ribozyme fitness (log ratio)” value rises from -5.19 to -1.7.

First: G63C G113U
Second: C62G C124U
The “polymerase ribozyme fitness (log ratio)” value of the first is lower: -3.35 for the first, 0.784 for the second.

C62G C124A and C64U C88U G122A are within 0.2 log units of each other in “polymerase ribozyme fitness (log ratio)” value: -0.74 for the first, -0.852 for the second.

Compared with G63A A74U C102U A111U U129G, G63U G77C C86G is higher in “polymerase ribozyme fitness (log ratio)” value: -5.79 for the first, -4.32 for the second.

Compared with G63U C124U, G63C U130C is lower in “polymerase ribozyme fitness (log ratio)” value: 0.0528 for the first, -1.1 for the second.

Compared with C62A G110A, C64G U78C C115A is lower in “polymerase ribozyme fitness (log ratio)” value: -2.12 for the first, -5.99 for the second.

First: C62G C76G U112A
Second: G63U G69C
The “polymerase ribozyme fitness (log ratio)” value of the first is higher: -3.99 for the first, -4.76 for the second.

Compared with C62U U78A C89U G117A, G61C U81A C124G U132C is higher in “polymerase ribozyme fitness (log ratio)” value: -2.6 for the first, -2.36 for the second.

First: G63U G120U G135U
Second: G63A G107A
The “polymerase ribozyme fitness (log ratio)” value of the first is higher: -2.56 for the first, -6.55 for the second.

Going from G63A U81C A90U to G63C U92A, the “polymerase ribozyme fitness (log ratio)” value rises from -4.66 to -4.04.

Compared with C62U C73A G113A, G61U A83C is higher in “polymerase ribozyme fitness (log ratio)” value: -1.96 for the first, -0.327 for the second.

Going from G63C G117C C123G to C62U C97G U132A, the “polymerase ribozyme fitness (log ratio)” value falls from -2.31 to -3.9.

Going from C62A C101A A111C to G63A C115G, the “polymerase ribozyme fitness (log ratio)” value falls from -1.51 to -3.51.

First: A66C C94U
Second: G65C C123G
The “polymerase ribozyme fitness (log ratio)” value of the first is higher: -0.92 for the first, -3.83 for the second.

First: G63U C123A
Second: C62U C73U C79U C80U U112A
The “polymerase ribozyme fitness (log ratio)” value of the first is higher: -0.845 for the first, -3.4 for the second.

First: G63A U112C
Second: C64G A84U U112A
The “polymerase ribozyme fitness (log ratio)” value of the first is higher: 0.988 for the first, -6.14 for the second.

Going from C64U C76A G120U to G61U C82A G107A, the “polymerase ribozyme fitness (log ratio)” value rises from -5.9 to -5.28.

Compared with G63U C89A G113A G120C U129G, C62U G63U A103C C114A is higher in “polymerase ribozyme fitness (log ratio)” value: -5.25 for the first, -4.66 for the second.

First: G61U G135A
Second: C62A C85G
The “polymerase ribozyme fitness (log ratio)” value of the first is higher: -0.268 for the first, -2.62 for the second.

Compared with G61U G93U U130A, C62U G120A is higher in “polymerase ribozyme fitness (log ratio)” value: -1.63 for the first, 1.09 for the second.

Going from G63C C115U to C62U G107C, the “polymerase ribozyme fitness (log ratio)” value falls from -1.32 to -5.77.

First: C64U U92C G113A G127U U131C
Second: G61U A119G
The “polymerase ribozyme fitness (log ratio)” value of the first is lower: -3.48 for the first, 1.3 for the second.

Compared with C62G A105G, G61U C73U A121G is higher in “polymerase ribozyme fitness (log ratio)” value: -4.99 for the first, 0.407 for the second.

C62U C88G C114G and C62U C114G are within 0.2 log units of each other in “polymerase ribozyme fitness (log ratio)” value: -3.23 for the first, -3.11 for the second.

First: C62U C114U
Second: C62G A83U A84U
The “polymerase ribozyme fitness (log ratio)” value of the first is higher: -1.82 for the first, -2.65 for the second.

First: G63U U92A
Second: G61U U96A
The “polymerase ribozyme fitness (log ratio)” value of the first is lower: -5.39 for the first, -0.797 for the second.

Compared with G63A U106G, G63A U106A is higher in “polymerase ribozyme fitness (log ratio)” value: -2.57 for the first, -1.29 for the second.

Going from G63A U126G to G63U C89U, the “polymerase ribozyme fitness (log ratio)” value rises from -2.3 to -1.85.

First: C62G C102A C115A
Second: C62A C72U G93C
The “polymerase ribozyme fitness (log ratio)” value of the first is lower: -2.67 for the first, -1.64 for the second.

Compared with C62G G93C, C62A C82U A121U U125A is higher in “polymerase ribozyme fitness (log ratio)” value: -3.7 for the first, 1.19 for the second.

Going from G63A C73U U130G to G63C C80U, the “polymerase ribozyme fitness (log ratio)” value falls from -0.938 to -2.4.

Compared with C62U A111C, C62G A83U U96A is lower in “polymerase ribozyme fitness (log ratio)” value: 0.533 for the first, -4.56 for the second.

Compared with C64U C73A U131A, G61U G117A is lower in “polymerase ribozyme fitness (log ratio)” value: -0.288 for the first, -0.499 for the second.

Going from C64A A66C U109C to G61C G110U, the “polymerase ribozyme fitness (log ratio)” value rises from -6.74 to -3.71.

First: C62U G110U
Second: G61C G93U U130A
The “polymerase ribozyme fitness (log ratio)” value of the first is higher: -1.14 for the first, -3.65 for the second.

First: G63A G93A G120U
Second: G63U U87A G122U
The “polymerase ribozyme fitness (log ratio)” value of the first is higher: -1.07 for the first, -1.97 for the second.

Compared with G61U C98A, G61U C98U is higher in “polymerase ribozyme fitness (log ratio)” value: -3.78 for the first, -1.55 for the second.

Compared with G61U A100C, G63A U133A is lower in “polymerase ribozyme fitness (log ratio)” value: -0.248 for the first, -0.918 for the second.

For G61U G63A U96A A103G A111U G113A U132C, the “polymerase ribozyme fitness (log ratio)” value was -6.45.
